Two substances from article PMC11826994 can be followed below.

Assay [1] addresses full-length histone H4 with the canonical Asp at position 24 (H4D24), semisynthetic (UniProt P62805).
Assay [2] concerns the target full-length histone H4 with L-isoaspartate at position 24 (H4isoD24), semisynthetic (UniProt P62805).

With “methyltransferase Set8 (from UniProt Q9NQR1 1-393) (enzyme)”, in assay [1], the k (1,obs), rate of H4K20 monomethylation by Set8 on 12-mer nucleosome arrays containing H4D24 (with Suv4-20h1 and AdoMet; HRMS) stood at 0.0059 min^–1. For the same substance, in assay [2], the k (1,obs), rate of H4K20 monomethylation by Set8 on 12-mer nucleosome arrays containing H4isoD24 (with Suv4-20h1 and AdoMet; HRMS) amounted to 0.0016 min^–1.

On to “methyltransferase Suv4-20h1 (from UniProt Q4FZB7 1-885) (enzyme)”, for which the k (2,obs), rate of H4K20me1 to H4K20me2 methylation by Suv4-20h1 on 12-mer nucleosome arrays containing H4D24 (with Set8 and AdoMet; HRMS) in assay [1] came out at 0.033 min^–1. Moreover, the k (2,obs), rate of H4K20me1 to H4K20me2 methylation by Suv4-20h1 on 12-mer nucleosome arrays containing H4isoD24 (with Set8 and AdoMet; HRMS) in assay [2] was 0.002 min^–1.
